From JP2016161390A (dated 2016) come the findings set out here.

One assay deals with T1, ヒトFRα(FRα発現KB細胞) (human, UniProt P15328 25-234).
T1 construct: whole, on cells
The experiment in a line: Hybridoma screening on cells expressing FRβ and on KB cells expressing FRα.

Assay [1] addresses T2, ヒトFRβ(FRβ発現B300−19細胞) (human, UniProt P14207 17-230).
T2 construct: whole, on cells; also called 葉酸リセプターβ
Put plainly: Flow cytometry on B300-19 cells expressing FRβ, antibody at 1 μg/ml, APC anti-rat detection. (In flow cytometry, cells or beads pass a laser one at a time.)

In assay [2] the target is T2, ヒトFRβ(FRβ発現B300−19細胞). The experiment in a line: Flow cytometry on B300-19 cells expressing FRβ, in the presence of F(ab')2 No.5, APC-streptavidin detection.

T2 sequence (P14207 17-230): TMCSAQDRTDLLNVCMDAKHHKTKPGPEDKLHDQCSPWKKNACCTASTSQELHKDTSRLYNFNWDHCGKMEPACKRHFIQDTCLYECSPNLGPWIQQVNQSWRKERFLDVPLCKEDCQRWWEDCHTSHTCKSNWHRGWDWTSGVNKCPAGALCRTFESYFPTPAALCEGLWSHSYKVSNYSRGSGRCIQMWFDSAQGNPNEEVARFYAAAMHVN
T1 sequence (P15328 25-234): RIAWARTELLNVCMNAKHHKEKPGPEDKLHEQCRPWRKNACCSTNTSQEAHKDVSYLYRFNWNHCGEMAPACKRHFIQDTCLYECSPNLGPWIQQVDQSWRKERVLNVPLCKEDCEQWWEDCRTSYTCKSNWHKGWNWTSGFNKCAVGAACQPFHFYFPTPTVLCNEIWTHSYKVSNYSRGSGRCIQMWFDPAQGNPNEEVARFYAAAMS

B1: 抗ヒトFRラットモノクローナル抗体(クローン名:No.5) (antibody, V domains shown)
VH: QVQLKESGPGLVQPSQTLSLTCTVSGFSLTSNSVSWVRQPPGKGLEWMGAIWSGGSTDYNSALKSRLSISKDTSKSQVFLKMNSLQTEDTAIYFCTRYYGYTYFAYWGQGVMVTVSS
VL: DIQMTQSPASLSASLEEIVTITCQASQDIGNWLAWYQQKPGKSPQLLIYDAIRLADGVPSRFSGSRSGTQYSLKISRLQVEDIGDYYCQQGQSNPRTFGGGTKLELK
notes: Rat monoclonal antibody purified from hybridoma supernatant; the constant regions are not; also called 抗体No.5
B1: the binding result with ヒトFRα(FRα発現KB細胞) and with ヒトFRβ(FRβ発現B300−19細胞) [1] was “binds” throughout.

B2: ビオチン化No.2抗体 (antibody, V domains shown)
VH: QVQLQQSGAELAKPGSSVKISCKASGYTFTTYYINWIKQTTGQGLDYIGYINTRSGGTNYNEKFKGKATLTVDKSSSTAFMQLSSLTPDDSAVYYCAREGIIRGAEVMDAWGQGASVTVSS
VL: DIQMTQTPSSMPASLGERVTISCRASQGISNYLNRYQQKPDGTIKLLIYYTSNLQSGVPSRFSGSGSGTDYSLTISSLEPEDFAMYYCQQYDSSPPTFGGGTKLELK
modifications: biotinylated with Sulfo-NHS-LC-Biotin; sites not stated
notes: also called 検出抗体; ビオチン化抗FRβ抗体
B2: in the assay with ヒトFRβ(FRβ発現B300−19細胞) [2], the binding result is listed as “binds”.

B3: 抗ヒトFRβラットモノクローナル抗体(クローン名:No.2) (antibody, V domains shown)
VH: QVQLQQSGAELAKPGSSVKISCKASGYTFTTYYINWIKQTTGQGLDYIGYINTRSGGTNYNEKFKGKATLTVDKSSSTAFMQLSSLTPDDSAVYYCAREGIIRGAEVMDAWGQGASVTVSS
VL: DIQMTQTPSSMPASLGERVTISCRASQGISNYLNRYQQKPDGTIKLLIYYTSNLQSGVPSRFSGSGSGTDYSLTISSLEPEDFAMYYCQQYDSSPPTFGGGTKLELK
notes: Rat monoclonal antibody purified from hybridoma supernatant; the constant regions are not; also called 抗体No.2
With B3, the binding result in the assay with ヒトFRβ(FRβ発現B300−19細胞) [1] was “binds”.
